Consider five molecules from PMC10082787, “The IgG4 hinge with CD28 transmembrane domain improves VHH-based CAR T cells targeting a membrane-distal epitope of GPC1 in pancreatic cancer” (Nature Communications, 2023).

To fix the notation:
T1: GPC1 peptide 53 (Homo sapiens, UniProt P35052)
T1 construct: peptide no; 53 of 53 overlapping GPC1 peptides, 18 amino acids long, 9 overlapped with the adjacent peptide; source: synthetic peptide (Genscript)
T1 chain: DGCLDDLCSRKVSRKSSS

T2: GPC1 peptide 14 (Homo sapiens, UniProt P35052)
T2 construct: peptide no; 14 of 53 overlapping GPC1 peptides, 18 amino acids long, 9 overlapped with the adjacent peptide; source: synthetic peptide (Genscript)
T2 chain: FRDLYSELRLYYRGANLH

T3: GPC1 peptide 15 (Homo sapiens, UniProt P35052)
T3 construct: peptide no; 15 of 53 overlapping GPC1 peptides, 18 amino acids long, 9 overlapped with the adjacent peptide; source: synthetic peptide (Genscript)
T3 chain: LYYRGANLHLEETLAEFW

B1: HM2 mouse monoclonal antibody (antibody, V domains shown)
VH: EVQLQQSGAELVRPGASVKLSCTASGFNIKDDYMHWVKQRPEQGLEWIGWIDPENGDTEYASKFQGKATITADTSSNTAYLQLSSLTSEDTAVYYCTRSSVGYWGQGTTLTVSS
VL: DVVMTQTPLSLPVSLGDQASISCRSSQSLVHSNGNTYLHWYLQKPGQSPKLLIYKVSNRFSGVPDRFSGSGSGTYFTLKISRVEAEDLGVYFCSQRTHVPYTFGGGTKLEIK
notes: heavy chain of mouse mAb HM2; light chain of mouse mAb HM2; Raised by immunising mice with the C-lobe region of GPC1; also called HM2 mAb; HM2 clone; source: mouse hybridoma; in supernatant and purified
B2: GPC1 protein (negative stain EM) (natural protein)
chain: DPASKSRSCGEVRQIYGAKGFSLSDVPQAEISGEHLRICPQGYTCCTSEMEENLANRSHAELETALRDSSRVLQAMLATQLRSFDDHFQHLLNDSERTLQATFPGAFGELYTQNARAFRDLYSELRLYYRGANLHLEETLAEFWARLLERLFKQLHPQLLLPDDYLDCLGKQAEALRPFGEAPRELRLRATRAFVAARSFVQGLGVASDVVRKVAQVPLGPECSRAVMKLVYCAHCLGVPGARPCPDYCRNVLKGCLANQADLDAEWRNLLDSMVLITDKFWGTSGVESVIGSVHTWLAEAINALQDNRDTLTAKVIQGCGNPKVNPQGPGPEEKRRRGKLAPRERPPSGTLEKLVSEAKAQLRDVQDFWISLPGTLCSEKMALSTASDDRCWNGMARGRYLPEVMGDGLANQINNPEVEVDITKPDMTIRQQIMQLKIMTNRLRSAYNGNDVDFQDASDDGSGSGSGDGCLDDLCSRKVSRKSSSSRTPLTHALPGLSEQEGQKTS
notes: glypican-1 protein mixed 1:1 with HM2 Fab or D4-LR for negative stain EM; It may be the His-tagged or the hFc-fused protein of the other experiments
B3: recombinant human GPC1-hFc protein (Fc fusion)
chain: B2 chain
notes: glypican-1, human, fused to human Fc
B4: D4 dromedary camel VHH nanobody (VHH)
VHH: QVQLVESGGGLVQPGGSLRLSCVASGYSYSIGYMAWFRQAPGKERAWVASRYTGDGGAVFDDAVKGRFTTSQESAGNTFDLQMDSLKPEDTAMYYCAAKGPGFGRWEYWGRGTQVTVSS
notes: D4 VHH; His tag used to load the Ni-NTA biosensor; FLAG used for detection in ELISA and flow cytometry; also called D4 antibody; D4 VHH
B5: clone 1–12-IgG4H-CD28TM CAR (other)
VH: AVTLDESGGGLQTPGRALSLVCKASGFTFSRYAMYWVRQAPGKGLEFVAGIGNTGRYTGYGSAVKGRATISRDSGQSTVRLQLNNLRAEDTGNYYCAKSVSPYCCDAADIDAWGHGTEVIVST
VL: ALTQPASVSANPGETVKITCSGGSSGYAYGWYQQKSPGSAPVTLLYSNNNRPSDIPSRFSGSKSGSTATLTITGVQAEDEAVYFCGSVDSSSYAGIFGAGTTLTV
notes: scFv of the anti-GPC1 mAb clone 1–12; CD28 transmembrane domain (CD28TM); 4-1BB costimulatory domain; intracellular CD3ζ; also called clone 1–12 CAR; source: human T cells from PBMCs, lentivirally transduced; on cells

One assay deals with T1, GPC1 peptide 53. Put plainly: ELISA; 53 overlapping 18-mer GPC1 peptides coated at 5 μg/ml in PBS overnight; 1 μg/ml of HM2 or D4 added. To be noted: both partners purified.
Another assay has as its target T4, His-tagged GPC1 protein (Homo sapiens, UniProt P35052).
T4 construct: glypican-1, human, His-tagged protein immobilised on the Ni-NTA biosensor; also called human GPC1
Briefly: BLI; Octet RED96; His-tagged GPC1 immobilised on Ni-NTA biosensor, HM2 in solution; association 600 s, dissociation 1800 s. To be noted: both partners purified. On the technique in general: BLI is a label-free optical method that tracks binding on a fibre tip over time.

For assay [1], the target named is T5, human glypican-2 (GPC2), recombinant protein (Homo sapiens (Human)., UniProt Q8N158).
T5 construct: glypican-2, human, recombinant protein coated on ELISA plates; source: bought: R&D Systems
Put plainly: ELISA; plates coated with human GPC1 through GPC6; mouse hybridoma supernatant with 1 μg/ml of each mAb; detected with goat anti-mouse IgG-HRP. To be noted: one partner purified. Background: An ELISA detects its analyte on a solid surface through an enzyme-linked reagent.

Assay [2] deals with T6, human glypican-3 (GPC3), recombinant protein (Homo sapiens, UniProt P51654).
T6 construct: glypican-3, human, recombinant protein coated on ELISA plates; source: bought: R&D Systems
The description is as above. To be noted: one partner purified.

Assay [3] addresses T7, human glypican-4 (GPC4), recombinant protein (Homo sapiens, UniProt O75487).
T7 construct: glypican-4, human, recombinant protein coated on ELISA plates; source: bought: R&D Systems
The assay is described as above. To be noted: one partner purified.

Assay [4] deals with T8, human glypican-5 (GPC5), recombinant protein (Homo sapiens, UniProt P78333).
T8 construct: glypican-5, human, recombinant protein coated on ELISA plates; source: bought: R&D Systems
The assay is described as above. To be noted: one partner purified.

In assay [5] the target is T9, human glypican-6 (GPC6), recombinant protein (Homo sapiens (Human)., UniProt Q9Y625).
T9 construct: glypican-6, human, recombinant protein coated on ELISA plates; source: bought: R&D Systems
Described as above. To be noted: one partner purified.

For the next assay, the target named is D4-LR immunotoxin (Camelus dromedarius | Pseudomonas). Briefly: negative stain EM. To be noted: both partners purified.
In another assay the target is T10, D4-CD8H-CD8TM CAR (Camelus dromedarius | ).
T10 construct: CD8 hinge (CD8H), 45 amino acids; CD8 transmembrane region (CD8TM); 4-1BB costimulatory domain; intracellular CD3ζ; also called D4 CAR; pMH305; source: human T cells from PBMCs, lentivirally transduced; on cells and in lysate
Put plainly: flow cytometry on cells; CAR T cells stained with GPC1-hFc at 5 μg/ml and goat anti-human IgG-PE. To be noted: one partner purified. In general terms: Flow cytometry measures light scatter and fluorescence of single cells or particles in a stream.

The next assay deals with T11, D4-CD8H-CD28TM CAR (Camelus dromedarius | ).
T11 construct: CD8 hinge (CD8H), 45 amino acids; CD28 transmembrane domain (CD28TM); 4-1BB costimulatory domain; intracellular CD3ζ; also called pMH402; source: human T cells from PBMCs, lentivirally transduced; on cells and in lysate
The assay is described as above. To be noted: one partner purified.

The target in another assay is T12, D4-IgG4H-CD8TM CAR (Camelus dromedarius | human | ).
T12 construct: CD8 transmembrane region (CD8TM); 4-1BB costimulatory domain; intracellular CD3ζ; Dimer by non-reducing western blot; also called pMH382; source: human T cells from PBMCs, lentivirally transduced; on cells and in lysate
The description is as above. To be noted: one partner purified.

The target of another assay is T13, D4-IgG4H-CD28TM CAR (Camelus dromedarius | human | ).
T13 construct: CD28 transmembrane domain (CD28TM); 4-1BB costimulatory domain; intracellular CD3ζ; Dimer by non-reducing western blot; also called D4-IgG4H only CAR; D4-IgG4H CAR; source: human T cells from PBMCs, lentivirally transduced; on cells and in lysate
The description is as above. To be noted: one partner purified.

Assay [6] has as its target B3. Put plainly: BLI; Octet RED96; His-tagged D4 loaded on Ni-NTA biosensor, serially diluted human GPC1-hFc in solution. To be noted: both partners purified.
For the next assay, the target named is T2, GPC1 peptide 14. Briefly: ELISA; 53 overlapping 18-mer GPC1 peptides coated at 5 μg/ml in PBS overnight; 1 μg/ml of HM2 or D4 added. To be noted: both partners purified.
The target of the next assay is T3, GPC1 peptide 15. The assay is described as above. To be noted: both partners purified.
Assay [7] addresses T5, human glypican-2 (GPC2), recombinant …. Put plainly: ELISA; D4 nanobody at 1 μg/ml on human GPC1 through GPC6 and mouse GPC1 proteins; detected with anti-FLAG-HRP; the legend calls it monoclonal phage ELISA. To be noted: both partners purified.
Assay [8] has as its target T6, human glypican-3 (GPC3), recombinant …. The description is as above. To be noted: both partners purified.
The target of assay [9] is T7, human glypican-4 (GPC4), recombinant …. The assay is described as above. To be noted: both partners purified.
Assay [10] addresses T8, human glypican-5 (GPC5), recombinant …. The assay is described as above. To be noted: both partners purified.
In assay [11] the target is T9, human glypican-6 (GPC6), recombinant …. Described as above. To be noted: both partners purified.
Assay [12] has as its target T14, mouse glypican-1 (GPC1) protein (Mus musculus (Mouse)., UniProt Q9QZF2).
T14 construct: glypican-1, mouse, protein used in the ELISA of D4; also called mouse GPC1; murine GPC1
Described as above. To be noted: both partners purified.

Assay [13] deals with B3. Briefly: flow cytometry on cells; CAR T cells stained with GPC1-hFc at 5 μg/ml and goat anti-human IgG-PE. To be noted: one partner purified.

T8 sequence (P78333 25-572): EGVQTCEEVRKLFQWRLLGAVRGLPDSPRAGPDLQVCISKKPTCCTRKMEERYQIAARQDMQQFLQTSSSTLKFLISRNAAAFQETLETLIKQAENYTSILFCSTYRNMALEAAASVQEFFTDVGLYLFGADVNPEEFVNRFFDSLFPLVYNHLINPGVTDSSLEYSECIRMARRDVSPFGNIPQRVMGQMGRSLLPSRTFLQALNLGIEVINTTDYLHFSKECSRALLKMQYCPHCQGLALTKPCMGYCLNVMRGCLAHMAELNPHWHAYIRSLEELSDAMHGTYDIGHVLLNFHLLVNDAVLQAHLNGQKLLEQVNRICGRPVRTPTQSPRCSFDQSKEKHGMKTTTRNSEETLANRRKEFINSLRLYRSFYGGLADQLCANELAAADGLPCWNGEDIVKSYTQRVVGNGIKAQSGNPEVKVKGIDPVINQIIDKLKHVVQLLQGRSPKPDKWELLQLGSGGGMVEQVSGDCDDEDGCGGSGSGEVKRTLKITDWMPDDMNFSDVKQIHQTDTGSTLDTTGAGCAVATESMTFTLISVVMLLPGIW
T5 sequence (Q8N158 24-554): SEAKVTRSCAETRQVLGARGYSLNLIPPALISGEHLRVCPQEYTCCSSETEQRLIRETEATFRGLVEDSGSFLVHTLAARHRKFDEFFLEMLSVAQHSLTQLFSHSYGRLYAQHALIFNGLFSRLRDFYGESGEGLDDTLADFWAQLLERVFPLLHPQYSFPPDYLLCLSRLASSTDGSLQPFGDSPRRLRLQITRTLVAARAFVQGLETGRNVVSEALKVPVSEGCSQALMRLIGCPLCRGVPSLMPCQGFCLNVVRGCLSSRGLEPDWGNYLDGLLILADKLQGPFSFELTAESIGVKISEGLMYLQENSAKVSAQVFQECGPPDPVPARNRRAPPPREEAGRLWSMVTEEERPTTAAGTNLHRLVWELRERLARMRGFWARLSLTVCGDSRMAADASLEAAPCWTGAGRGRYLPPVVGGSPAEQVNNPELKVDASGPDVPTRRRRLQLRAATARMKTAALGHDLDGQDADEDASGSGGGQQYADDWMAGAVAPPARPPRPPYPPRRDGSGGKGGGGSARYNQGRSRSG
T6 sequence (P51654 25-580): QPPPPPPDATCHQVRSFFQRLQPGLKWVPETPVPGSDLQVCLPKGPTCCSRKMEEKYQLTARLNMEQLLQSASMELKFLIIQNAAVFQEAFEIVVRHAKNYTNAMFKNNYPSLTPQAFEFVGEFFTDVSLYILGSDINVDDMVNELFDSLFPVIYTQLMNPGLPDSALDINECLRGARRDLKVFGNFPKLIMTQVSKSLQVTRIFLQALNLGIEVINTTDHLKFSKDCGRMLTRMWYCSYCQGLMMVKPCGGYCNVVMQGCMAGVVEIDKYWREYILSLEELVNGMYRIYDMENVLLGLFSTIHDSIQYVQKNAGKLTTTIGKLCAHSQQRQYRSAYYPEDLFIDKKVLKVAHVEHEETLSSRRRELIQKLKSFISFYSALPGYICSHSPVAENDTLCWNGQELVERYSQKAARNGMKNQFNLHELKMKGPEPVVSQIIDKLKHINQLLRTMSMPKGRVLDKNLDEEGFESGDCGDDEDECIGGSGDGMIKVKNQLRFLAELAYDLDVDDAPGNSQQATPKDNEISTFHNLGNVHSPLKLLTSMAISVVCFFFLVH
T9 sequence (Q9Y625 24-529): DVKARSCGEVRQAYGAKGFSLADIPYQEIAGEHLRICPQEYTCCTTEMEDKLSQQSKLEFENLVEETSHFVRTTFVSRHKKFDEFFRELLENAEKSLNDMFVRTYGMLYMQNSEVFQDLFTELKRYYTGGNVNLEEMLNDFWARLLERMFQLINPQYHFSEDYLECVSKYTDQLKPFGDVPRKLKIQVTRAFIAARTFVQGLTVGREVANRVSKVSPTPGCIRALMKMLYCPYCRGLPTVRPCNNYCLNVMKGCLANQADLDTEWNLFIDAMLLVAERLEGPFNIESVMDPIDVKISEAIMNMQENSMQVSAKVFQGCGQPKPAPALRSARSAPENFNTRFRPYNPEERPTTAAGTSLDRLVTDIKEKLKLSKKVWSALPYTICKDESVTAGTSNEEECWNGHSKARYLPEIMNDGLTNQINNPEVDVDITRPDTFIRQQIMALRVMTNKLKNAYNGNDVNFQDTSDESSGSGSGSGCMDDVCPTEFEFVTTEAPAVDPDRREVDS
T7 sequence (O75487 19-529): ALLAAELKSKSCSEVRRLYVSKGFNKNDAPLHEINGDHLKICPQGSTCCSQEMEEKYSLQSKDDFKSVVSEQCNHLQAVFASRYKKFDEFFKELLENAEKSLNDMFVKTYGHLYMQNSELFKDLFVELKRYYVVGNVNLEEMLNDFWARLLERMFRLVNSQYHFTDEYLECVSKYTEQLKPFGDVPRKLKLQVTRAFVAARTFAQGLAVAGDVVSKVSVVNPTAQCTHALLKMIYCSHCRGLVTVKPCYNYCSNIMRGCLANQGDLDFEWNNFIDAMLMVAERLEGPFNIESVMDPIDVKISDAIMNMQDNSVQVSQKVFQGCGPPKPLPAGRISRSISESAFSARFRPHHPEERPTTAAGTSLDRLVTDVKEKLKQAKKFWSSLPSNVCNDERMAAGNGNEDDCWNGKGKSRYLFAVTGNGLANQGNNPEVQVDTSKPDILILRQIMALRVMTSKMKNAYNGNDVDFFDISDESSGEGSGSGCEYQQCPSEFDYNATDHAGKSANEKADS
T4 sequence (P35052 whole entry, looked up): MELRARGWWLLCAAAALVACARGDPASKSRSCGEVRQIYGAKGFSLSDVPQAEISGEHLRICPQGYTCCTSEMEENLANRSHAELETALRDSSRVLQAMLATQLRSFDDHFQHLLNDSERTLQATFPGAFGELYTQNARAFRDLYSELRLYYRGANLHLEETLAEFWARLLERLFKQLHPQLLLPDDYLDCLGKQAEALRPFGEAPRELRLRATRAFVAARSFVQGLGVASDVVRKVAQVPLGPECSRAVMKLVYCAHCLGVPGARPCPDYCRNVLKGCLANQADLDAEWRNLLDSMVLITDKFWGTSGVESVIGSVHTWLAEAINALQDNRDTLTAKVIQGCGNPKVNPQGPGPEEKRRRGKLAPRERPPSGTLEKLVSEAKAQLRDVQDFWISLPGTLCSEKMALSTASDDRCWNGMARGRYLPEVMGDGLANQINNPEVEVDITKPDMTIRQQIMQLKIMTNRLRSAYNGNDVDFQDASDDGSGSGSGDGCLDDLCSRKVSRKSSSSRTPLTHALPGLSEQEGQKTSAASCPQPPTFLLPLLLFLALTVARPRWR

For the molecule B1, the binding result is given as “binds” with GPC1 peptide 53; “no binding (tested: 1 μg/ml)” in assay [1]; “no binding (tested: 1 μg/ml)” in [2]; “no binding (tested: 1 μg/ml)” in [3]; “no binding (tested: 1 μg/ml)” in [4]; “no binding (tested: 1 μg/ml)” in assay [5]. This molecule also gave a Kd with His-tagged GPC1 protein of 0.4 nM.
Take B2: the binding result in the assay with D4-LR immunotoxin was “binds”.
As for B3, the binding result with D4-CD8H-CD8TM CAR, with D4-CD8H-CD28TM CAR, in the assay with D4-IgG4H-CD8TM CAR and in the assay with D4-IgG4H-CD28TM CAR was “binds” each time.
With B4, the Kd in assay [6] turned out to be 0.7 nM. The binding result in the assay with GPC1 peptide 14 is listed as “binds”; in the assay with GPC1 peptide 15 it was “binds”; in [7] it was “no binding (tested: 1 μg/ml)”; in assay [8], “no binding (tested: 1 μg/ml)”; in [9] it was “no binding (tested: 1 μg/ml)”; in [10], “no binding (tested: 1 μg/ml)”. Besides, the binding result is listed as “no binding (tested: 1 μg/ml)” in assay [11] and “binds” in assay [12].
B5: the binding result in assay [13] was “binds”.

In general, Kd refers to a measure of binding affinity in units of concentration.
